For one data set, the target named is PARP1 (UniProt P09874 1-1014). The data set is described as follows: EMSA; 25 nM PARP1; 25 mM Tris-HCl pH 7.5, 5 mM MgCl2, 30 mM NaCl, 5% glycerol, 0.1 mg/mL BSA, 1 mM DTT; PARylation 20 min 37 °C, binding at room temperature; 8% native PAGE 0.5x TBE. The settings on record: protein: recombinant; tags: N-terminal His; label: 5'-Cy3; single strand.
A further data set deals with Polθ-hel (human, UniProt O75417 1-894). Put plainly: EMSA; PARP1 or NAD+ omitted; 40 nM protein, 10 nM DNA; 25 mM Tris-HCl pH 7.5, 5 mM MgCl2, 30 mM NaCl, 5% glycerol, 0.1 mg/mL BSA, 1 mM DTT; PARylation 20 min 37 °C, binding at room temperature; 8% native PAGE 0.5x TBE. The settings on record: protein: recombinant; label: 5'-Cy3; single strand.
Sequence of Polθ-hel (O75417 1-894): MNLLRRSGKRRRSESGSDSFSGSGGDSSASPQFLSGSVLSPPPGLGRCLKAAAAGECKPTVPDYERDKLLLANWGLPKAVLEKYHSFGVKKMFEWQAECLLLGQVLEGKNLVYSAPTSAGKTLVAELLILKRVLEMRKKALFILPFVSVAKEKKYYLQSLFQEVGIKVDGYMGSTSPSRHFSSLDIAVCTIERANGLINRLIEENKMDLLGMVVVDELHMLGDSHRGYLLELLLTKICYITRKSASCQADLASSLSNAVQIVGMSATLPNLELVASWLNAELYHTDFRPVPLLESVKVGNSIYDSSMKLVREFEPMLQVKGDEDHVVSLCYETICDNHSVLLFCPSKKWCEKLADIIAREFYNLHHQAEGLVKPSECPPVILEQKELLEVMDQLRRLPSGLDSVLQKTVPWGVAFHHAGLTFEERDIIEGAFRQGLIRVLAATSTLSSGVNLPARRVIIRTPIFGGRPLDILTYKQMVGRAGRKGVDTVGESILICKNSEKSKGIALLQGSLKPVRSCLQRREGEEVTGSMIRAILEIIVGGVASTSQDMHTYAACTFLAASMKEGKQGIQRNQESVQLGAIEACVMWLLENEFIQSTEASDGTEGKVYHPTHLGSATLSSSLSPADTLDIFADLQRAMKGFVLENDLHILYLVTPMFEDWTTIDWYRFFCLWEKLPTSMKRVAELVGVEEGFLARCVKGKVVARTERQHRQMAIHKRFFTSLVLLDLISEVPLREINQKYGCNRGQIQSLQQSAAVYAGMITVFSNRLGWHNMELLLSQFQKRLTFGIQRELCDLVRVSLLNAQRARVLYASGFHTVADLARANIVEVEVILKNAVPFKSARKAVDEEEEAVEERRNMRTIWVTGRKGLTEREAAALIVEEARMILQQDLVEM

Sequence of PARP1 (P09874 whole entry): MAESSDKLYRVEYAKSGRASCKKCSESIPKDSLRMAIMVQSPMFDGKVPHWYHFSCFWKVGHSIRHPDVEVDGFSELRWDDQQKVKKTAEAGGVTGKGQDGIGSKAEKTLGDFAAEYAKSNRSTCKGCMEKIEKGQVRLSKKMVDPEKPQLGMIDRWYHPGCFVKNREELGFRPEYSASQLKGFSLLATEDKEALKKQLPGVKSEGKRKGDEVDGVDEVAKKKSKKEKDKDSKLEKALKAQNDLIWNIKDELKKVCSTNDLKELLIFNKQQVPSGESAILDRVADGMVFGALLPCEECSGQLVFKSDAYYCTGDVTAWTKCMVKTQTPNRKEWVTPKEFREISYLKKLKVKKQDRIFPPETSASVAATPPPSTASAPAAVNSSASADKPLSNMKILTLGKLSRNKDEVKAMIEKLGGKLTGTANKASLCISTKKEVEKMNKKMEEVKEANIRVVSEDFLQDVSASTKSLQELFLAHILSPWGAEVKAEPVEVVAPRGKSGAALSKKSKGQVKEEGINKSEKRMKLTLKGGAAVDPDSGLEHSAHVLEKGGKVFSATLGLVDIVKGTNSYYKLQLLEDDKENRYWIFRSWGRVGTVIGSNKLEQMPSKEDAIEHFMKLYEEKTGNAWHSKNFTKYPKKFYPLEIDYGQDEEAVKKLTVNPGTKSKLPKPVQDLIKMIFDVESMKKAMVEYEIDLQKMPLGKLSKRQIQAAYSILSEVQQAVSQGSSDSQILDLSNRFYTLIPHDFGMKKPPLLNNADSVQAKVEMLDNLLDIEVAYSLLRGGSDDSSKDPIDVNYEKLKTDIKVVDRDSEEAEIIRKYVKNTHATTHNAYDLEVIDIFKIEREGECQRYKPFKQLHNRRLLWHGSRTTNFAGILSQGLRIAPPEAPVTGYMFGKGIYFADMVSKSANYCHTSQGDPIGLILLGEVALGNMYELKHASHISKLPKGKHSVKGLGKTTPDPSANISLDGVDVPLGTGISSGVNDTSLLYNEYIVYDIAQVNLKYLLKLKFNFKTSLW

Regarding TTTTTTTTTTTTTTTTTTTTTTTTTTTTT (ssDNA) [RP316-Cy3], the binding result with PARP1 is reported as “no binding”; with Polθ-hel, “binds”.

The values above are taken from PMC11236980, “PARG is essential for Polθ-mediated DNA end-joining by removing repressive poly-ADP-ribose marks”.
